Measurements published in patent publication US20130344053A1, “Methods of Modifying Insulin Signaling Using Biliverdin Reductase (BVR) and BVR Derived Peptides” (University of Rochester, priority 2010, published 2013).
Entries after “also recorded” stand apart in the source; their conditions may differ. One block for each molecule: values may come before it.

Experiments:
human BVR = target: T1, human BVR (Homo sapiens, UniProt P53004); test: BVR autophosphorylation; assay type: biochemical; conditions: 20 mM Zn acetate, pH 8.4; also with Mn^+2
T1 construct: made in house; host or cells: E. coli (pGEX 4T-2/hBVR)
T1 sequence (P53004 1-296 A154S/G155D/E160D): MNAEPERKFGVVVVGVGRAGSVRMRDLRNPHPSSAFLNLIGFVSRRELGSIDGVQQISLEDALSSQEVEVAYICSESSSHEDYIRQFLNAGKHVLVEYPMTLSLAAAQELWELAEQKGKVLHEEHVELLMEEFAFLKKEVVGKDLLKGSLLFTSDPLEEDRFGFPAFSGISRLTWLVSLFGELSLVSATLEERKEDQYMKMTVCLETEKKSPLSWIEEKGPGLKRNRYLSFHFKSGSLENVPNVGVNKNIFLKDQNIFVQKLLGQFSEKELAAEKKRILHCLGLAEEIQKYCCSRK
Procedure: In FIG. 9A, effect of tyrosine mutations of BVR on its autophosphorylation is shown. Human wtBVR and BVR with mutations in tyrosine were used in the experiment to determine autophosphorylation of BVR. The reactions were performed as described in the Examples. FIG. 9B is a graph showing that BVR tyrosine kinase activity was checked by incubating 5 μg purified BVR with 5 μg Raytide in 50 μl kinase buffer containing 10 μM labeled ATP for 2 h at 30° C. The aliquots of the reaction were transferred onto P81 Whatman filters and radioactivity due to phosphorylation was measured using a scintillation counter.
FIGS. 10A-B illustrate that autophosphorylation of BVR is an Mn^+2 dependant kinase reaction. […] The effects of different metal ions (30 mM MnCl2, 20 mM MgCl2, 20 mM CaCl2, 20 mM Zn acetate) and their combinations were analyzed as indicated in the text. […] Phosphorylation of wtBVR by IRK in the presence of tyrosine kinase inhibitor genestein (200 μM); DMSO was used as the vehicle for genestein and was included in the control reaction mixture. The reactions were carried out in HEPES buffer (pH 8.0) in the presence of 20 mM MgCl2 as described in the Examples.
(§1) To detect autophosphorylation of BVR, GST-hBVR of wild type (wt) and mutant variants were incubated in 50 mM HEPES buffer (pH 8.4) in the presence of 30 mM MnCl2 and 1 mM DTT for 2 h at 30° C. The reaction was started with the addition of 10 μM ATP labeled with 10 μCi [γ-^32P]-ATP and was stopped with the addition of Laemmli sample buffer. Samples were boiled for 3 min and applied to a 8% SDS-PAGE gels, transferred to a PVDF membrane, and then visualized by autoradiography. […] The reaction was started with the addition of ATP and terminated by adding 120 μl 10% H3PO4. 100 μl aliquots were directly transferred to P81 Whatman filters which were subsequently washed extensively in 0.75% phosphoric acid at room temperature. Finally, the filters were submerged in acetone for 5 min, dried, and retained counts were measured using a Beckman LS 6500 liquid scintillation counter (Beckman Coulter, Fullerton, Calif.).

[1] = tested on: rat smooth muscle cells (PAC1); test: Glucose uptake in PAC1 cells (IGF-dependent); assay type: cell-based
Procedure: Glucose uptake was tested as described infra. Cells were starved in low glucose serum-depleted DMEM for 20 hours prior to transfer to PBS containing CaCl2, MgCl2. After 2 hrs myristoylated peptides were added to the medium for 2 hours. Thereafter, IGF-1 (50 ng/ml) or insulin (100 nM) was added (10 min) and glucose uptake was tested for 3 min in the presence of methyl-D-glucose,3-O-[methyl-3H]. Subsequently cells were washed 3 times in cold PBS and solubilized in NaOH (0.05 mM). Aliquots were measured for radioactivity. Non-specific binding or diffusion were tested by addition of 300 mM glucose to the cells. This value was deducted from the total counts (on the average <20%) and results were normalized for protein concentration.
FIGS. 15A-B show the effect of hBVR-based peptides on IGF-dependent glucose uptake in rat smooth muscle cells (PAC1) (FIG. 15A) and insulin-dependent glucose uptake in human epithelial kidney (HEK) cells (FIG. 15B). Cells were treated as described for FIG. 14 and glucose uptake was measured as described infra.
The therapeutic utility of various BVR peptides with regard to their ability to modify insulin and insulin growth factor (IGF) mediated cellular glucose uptake was evaluated. Human embryonic kidney cells (HEK293) or rat aortic smooth muscle cells (PAC) were starved in low glucose serum-depleted DMEM for twenty hours prior to transfer to PBS containing CaCl2, MgCl2. After two hours, myristoylated peptides were added to the medium for two additional hours. Thereafter, IGF-1 (50 ng/ml) or insulin (100 nM) was added (10 min) and glucose uptake was tested for three minutes in the presence of methyl-D-glucose,3-O-[methyl-3H]. Subsequently, cells were washed three times in cold PBS and solubilized in NaOH (0.05 mM). Aliquots were measured for radioactivity. Non-specific binding or diffusion was tested by addition of 300 mM glucose to the cells. This value was deducted from the total counts (on the average <20%) and results were normalized for protein concentration.

IRK = target: T2, IRK (Homo sapiens, UniProt P06213); test: IRK autophosphorylation in the presence of hBVR-derived peptides; assay type: biochemical; conditions: 20 μM myristoylated hBVR-based peptide, 45 min, purified IRK
T2 construct: the intracellular kinase domain of the insulin receptor; purchased Biomol International (Plymouth, Pa.)
T2 sequence (P06213 980-1382 limits assumed): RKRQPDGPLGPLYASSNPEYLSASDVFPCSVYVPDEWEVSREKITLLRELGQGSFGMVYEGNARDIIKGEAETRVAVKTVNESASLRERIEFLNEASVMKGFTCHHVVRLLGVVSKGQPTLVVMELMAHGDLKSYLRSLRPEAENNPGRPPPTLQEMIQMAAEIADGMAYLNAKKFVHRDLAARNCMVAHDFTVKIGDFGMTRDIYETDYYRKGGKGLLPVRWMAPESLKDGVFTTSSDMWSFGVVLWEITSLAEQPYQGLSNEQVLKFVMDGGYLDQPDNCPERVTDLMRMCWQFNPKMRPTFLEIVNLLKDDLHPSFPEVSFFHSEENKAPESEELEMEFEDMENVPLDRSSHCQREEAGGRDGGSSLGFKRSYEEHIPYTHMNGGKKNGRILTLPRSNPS
Procedure: FIGS. 13A-B show the effect of hBVR-derived peptides on autophosphorylation of IRK (FIG. 13A) and IRK kinase activity (FIG. 13B). Purified IRK was incubated in the absence or presence of 20 μM of the identified myristoylated hBVR-based peptides for 45 min in an assay system containing 50 mM Hepes pH 7.4, 20 mM MCl2,1 mM EGTA and 20 μM ATP labeled with 5 uCi gamma-P32-ATP. The reaction was stopped with the addition of phosphoric acid and aliquots were applied to P81 Whatman filters. Filters were extensively washed and subjected to counting in a scintillation counter. Total counts of radioactivity of each sample were corrected for non specific binding. […] Activity of IRK toward its substrate, IRS peptide, was tested in the presence of hBVR-based peptides. Experiments were conducted as in described for FIG. 13A with addition of IRS peptide as the substrate.
The effect of hBVR-derived peptides on autophosphorylation of IRK (FIG. 13A) and IRK kinase activity (FIG. 13B) was also investigated.

BVR [2] = test: BVR reductase activity in insulin-treated 293A cells; assay type: cell-based, human; conditions: insulin 50 nM, measured 1 h after treatment
Procedure: FIG. 12A-D illustrates that “knock-down” BVR and Y^198 detection increased glucose uptake into 293A cells upon insulin induction. As shown in the graph of FIG. 12A, insulin treatment increases BVR activity. 293A cells were treated with insulin (50 nM) and subsequently used at indicated time points for BVR activity measurement. […] Purified BVR was phosphorylated by IRK for the indicated periods. Reactions were terminated by diluting with PBS and freezing at −20° C. BVR activity was determined as in FIG. 12A, and normalized to that of the control (43.8 μmol per min per mg). […] 293A cells were incubated with insulin and after 8 min or 30 min, subjected to immunoprecipitation using anti-human BVR antibodies. The phosphorylated BVR was visualized by immunoblotting using anti-tyrosine antibodies. ECL system was used for visualization of phosphorylated BVR. […]
293A cells treated with insulin were lysed in buffer containing a protease inhibitor cocktail and phosphatase inhibitors (10 mM NaF, 1 mM NaVO4). BVR activity was measured at pH 6.7 using NADH as the cofactor as described previously (Huang et al., J. Biol. Chem. 264:7844-9 (1989), which is hereby incorporated by reference in its entirety). The rate of conversion of biliverdin to bilirubin was determined as the increase in absorbance at 450 nm at 25° C. Specific activity is expressed as μmol of bilirubin/min/mg of protein.

BVR [3] = test: BVR tyrosine phosphorylation in insulin-treated 293A cells (immunoprecipitation/immunoblot); assay type: cell-based, human; conditions: within 8 min after insulin treatment
Procedure: FIG. 12A-D illustrates that “knock-down” BVR and Y^198 detection increased glucose uptake into 293A cells upon insulin induction. As shown in the graph of FIG. 12A, insulin treatment increases BVR activity. 293A cells were treated with insulin (50 nM) and subsequently used at indicated time points for BVR activity measurement. […] Purified BVR was phosphorylated by IRK for the indicated periods. Reactions were terminated by diluting with PBS and freezing at −20° C. BVR activity was determined as in FIG. 12A, and normalized to that of the control (43.8 μmol per min per mg). […] 293A cells were incubated with insulin and after 8 min or 30 min, subjected to immunoprecipitation using anti-human BVR antibodies. The phosphorylated BVR was visualized by immunoblotting using anti-tyrosine antibodies. ECL system was used for visualization of phosphorylated BVR. In FIG. 12D, the effect of insulin treatment on glucose uptake cells infected with siBVR or Y^198 mutant BVR were treated with insulin for 15 min and subsequently incubated in 1 ml PBS containing 5 mM glucose and 1 μCi/ml-2-deoxy-1 [^3H] glucose (2DG) for 15 min. Cells were washed with cold PBS and lysed by addition of 1% (w/v) SDS to each well. […]
293A Cells were plated in 10 cm plates and transfected with appropriate plasmids. […] Protein concentration was determined by Bradford assay (Bio-Rad, Hercules, Calif.). […]

IRS-1 = test: BVR kinase activity with IRS-1 as substrate (wt vs G17 mutant); assay type: biochemical; conditions: mutation in ATP binding domain compared with wtBVR
Procedure: BVR containing mutations on threonine 202 and serine residues, as indicated in the figure, were subjected to autophosphorylation analysis as described in the text. […] 5 μg purified BVR was incubated with 5 μg IRS-1 or HO-1 or HO-2, used as a control for kinase activity, and MBP which was used as the substrate control in 50 μl kinase buffer as described in the Examples. […] Mutant G^17 was compared with wtBVR as a kinase for IRS.
as §1

[4] = target: T3, Peptide 1, mutant IRS-1 peptide (Lys-Lys-His-Ala-Asp-Asp-Gly-Ala-Met-Pro-Met-Ser-Pro-Gly-Val-Ala)
T3 chain: KKHADDGAMPMSPGVA

[5] = target: T4, Peptide 2, IRS-1 peptide (Arg-Thr-Glu-Ser307-Ile-Thr-Ala-Thr-Ser312-Pro-Ala-Ser315-Met-Val-Gly-Gly-Lys-Pro)
T4 chain: RTESITATSPASMVGGKP

[6] = target: insulin receptor substrate-1 (IRS-1) peptide Y^608

- BVR autophosphorylation in presence of metal ion (human BVR): inhibitory to BVR autophosphorylation
Molecule: CC(=O)[O-].CC(=O)[O-].[Zn+2] [Zn^+2, Zn acetate, reference compound]

- IRK autophosphorylation (IRK): increases IRK autophosphorylation
Molecule: KYCCSRK (Biliverdin reductase derived peptide) [C-terminal hBVR peptide, amino acids 290-296 of BVR; mimics insulin signaling]
- effectiveness in enhancing cellular glucose uptake compared with IGF-1 ([1]; PAC1 cells, IGF-1 50 ng/ml): as effective as IGF-1
- cellular glucose uptake in PAC1 cells ([1]; myristoylated peptide 2 h, uptake of methyl-D-glucose,3-O-[methyl-3H] for 3 min): enhances cellular glucose uptake in PAC1 cells in a dose-dependent manner; also recorded: increases glucose uptake in PAC1 cells in a concentration dependent manner

Molecule: insulin: Human insulin purchased from Sigma-Aldrich
- increase in BVR reductase activity (BVR [2]): 2 fold
- BVR tyrosine phosphorylation (BVR [3]): dramatic increase in phosphorylation

B1: G^17: human BVR point mutant GVGRA to GVARA in ATP binding domain (protein, UniProt P53004 3-296, looked up, variant G17A)
Biliverdin reductase A: AEPERKFGVVVVGVARAGSVRMRDLRNPHPSSAFLNLIGFVSRRELGSIDGVQQISLEDALSSQEVEVAYICSESSSHEDYIRQFLNAGKHVLVEYPMTLSLAAAQELWELAEQKGKVLHEEHVELLMEEFAFLKKEVVGKDLLKGSLLFTAGPLEEERFGFPAFSGISRLTWLVSLFGELSLVSATLEERKEDQYMKMTVCLETEKKSPLSWIEEKGPGLKRNRYLSFHFKSGSLENVPNVGVNKNIFLKDQNIFVQKLLGQFSEKELAAEKKRILHCLGLAEEIQKYCCSRK
- IRS phosphorylation by BVR (IRS-1): for the most part, prevented IRS phosphorylation by BVR

B2: GST-hBVR fusion protein, wild type (human biliverdin reductase fused to glutathione-S-transferase) (protein)
chain: T1 sequence (P53004 1-296 A154S/G155D/E160D)
- phosphorylation of IRS-1 peptide by BVR (32P, cpm) [4]: both the mutated and unmutated peptides were phosphorylated to about the same extent (1049±78 cpm and 1081±183 cpm respectively)
- phosphorylation of IRS-1 peptide by BVR (32P, cpm) [5]: this peptide is also a suitable substrate for BVR (1198±230 cpm)
- phosphorylation of BVR by IRK in the presence of increasing molar ratio of IRS/BVR [6]: in the presence of increasing amounts of IRS, there was an increase in phosphorylation of BVR by IR up to equimolar ratio of IRS/BVR
- phosphorylation of IRS-1 peptide by BVR (32P, cpm) [6]: both the mutated and unmutated peptides were phosphorylated to about the same extent (1049±78 cpm and 1081±183 cpm respectively)
